Assay [1] concerns the target T1, 4H2903-AA.
T1 chain: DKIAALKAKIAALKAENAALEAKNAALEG
Kind of assay: two-hybrid library CCmax.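 Further: natural log of median RNA to DNA barcode read ratio; higher means stronger binding.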

For assay [2], the target named is T2, 4H2947-AA.
T2 chain: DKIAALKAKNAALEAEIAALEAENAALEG
Kind of assay: two-hybrid library CCmax.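 Further: natural log of median RNA to DNA barcode read ratio; higher means stronger binding.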 As to conditions: mean of both orientations.

Assay [3] addresses T3, 4H2961-AA.
T3 chain: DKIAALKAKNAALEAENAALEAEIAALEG
Kind of assay: two-hybrid library CCmax.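 Further: natural log of median RNA to DNA barcode read ratio; higher means stronger binding.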 As to conditions: mean of both orientations.

For assay [4], the target named is T4, 4H3049-AA.
T4 chain: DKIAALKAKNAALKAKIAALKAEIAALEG
Put plainly: two-hybrid library CCmax.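 Further: natural log of median RNA to DNA barcode read ratio; higher means stronger binding.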 The note with it: mean of both orientations.

The target of assay [5] is T5, 4H3094-AA.
T5 chain: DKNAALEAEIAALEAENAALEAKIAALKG
Kind of assay: two-hybrid library CCmax. As to conditions: mean of both orientations.

Assay [6] addresses T6, 4H3129-AA.
T6 chain: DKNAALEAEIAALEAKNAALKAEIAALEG
Put plainly: two-hybrid library CCmax. The note with it: mean of both orientations.

The target of assay [7] is T7, 4H324-AA.
T7 chain: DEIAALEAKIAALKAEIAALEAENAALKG
Kind of assay: two-hybrid library CCmax. The note with it: mean of both orientations.

The target in assay [8] is T8, 4H341-AA.
T8 chain: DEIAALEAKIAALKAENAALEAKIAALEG
Put plainly: two-hybrid library CCmax. As to conditions: mean of both orientations.

Assay [9] concerns the target T9, 4H3414-AA.
T9 chain: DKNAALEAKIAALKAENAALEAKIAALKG
Put plainly: two-hybrid library CCmax. The note with it: mean of both orientations.

In assay [10] the target is T10, 4H3449-AA.
T10 chain: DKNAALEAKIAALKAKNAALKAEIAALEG
Put plainly: two-hybrid library CCmax. As to conditions: mean of both orientations.

The target in assay [11] is T11, 4H3595-AA.
T11 chain: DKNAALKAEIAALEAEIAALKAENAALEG
Put plainly: two-hybrid library CCmax. The note with it: mean of both orientations.

The target of assay [12] is T12, 4H3619-AA.
T12 chain: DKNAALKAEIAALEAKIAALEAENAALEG
Put plainly: two-hybrid library CCmax. As to conditions: mean of both orientations.

Assay [13] addresses T13, 4H3629-AA.
T13 chain: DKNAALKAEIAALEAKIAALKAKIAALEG
Kind of assay: two-hybrid library CCmax. The note with it: mean of both orientations.

Assay [14] has as its target T14, 4H3777-AA.
T14 chain: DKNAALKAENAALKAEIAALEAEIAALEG
Put plainly: two-hybrid library CCmax. As to conditions: mean of both orientations.

The target of assay [15] is T15, 4H3782-AA.
T15 chain: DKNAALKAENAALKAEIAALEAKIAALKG
Put plainly: two-hybrid library CCmax. As to conditions: mean of both orientations.

The target of assay [16] is T16, 4H380-AA.
T16 chain: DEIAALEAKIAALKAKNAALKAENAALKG
Put plainly: two-hybrid library CCmax. The note with it: mean of both orientations.

Assay [17] has as its target T17, 4H3915-AA.
T17 chain: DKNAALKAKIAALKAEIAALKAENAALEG
Put plainly: two-hybrid library CCmax. As to conditions: mean of both orientations.

Assay [18] has as its target T18, 4H3939-AA.
T18 chain: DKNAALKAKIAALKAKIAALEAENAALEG
Kind of assay: two-hybrid library CCmax. As to conditions: mean of both orientations.

Assay [19] concerns the target T19, 4H3969-AA.
T19 chain: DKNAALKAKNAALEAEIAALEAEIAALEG
Kind of assay: two-hybrid library CCmax. The note with it: mean of both orientations.

Assay [20] has as its target T20, 4H3974-AA.
T20 chain: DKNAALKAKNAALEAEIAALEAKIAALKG
Kind of assay: two-hybrid library CCmax. The note with it: mean of both orientations.

Assay [21] has as its target T21, 4H432-AA.
T21 chain: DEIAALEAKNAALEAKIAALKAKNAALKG
Put plainly: two-hybrid library CCmax. The note with it: mean of both orientations.

Assay [22] has as its target T22, 4H446-AA.
T22 chain: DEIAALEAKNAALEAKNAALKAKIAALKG
Put plainly: two-hybrid library CCmax. The note with it: mean of both orientations.

In assay [23] the target is T23, 4H464-AA.
T23 chain: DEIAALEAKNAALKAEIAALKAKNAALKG
Put plainly: two-hybrid library CCmax. As to conditions: mean of both orientations.

Assay [24] deals with T24, 4H483-AA.
T24 chain: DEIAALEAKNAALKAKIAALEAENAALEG
Put plainly: two-hybrid library CCmax. As to conditions: mean of both orientations.

In assay [25] the target is T25, 4H63-AA.
T25 chain: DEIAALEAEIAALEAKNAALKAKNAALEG
Put plainly: two-hybrid library CCmax. As to conditions: mean of both orientations.

The target of assay [26] is T26, 4H3926-bH.
T26 chain: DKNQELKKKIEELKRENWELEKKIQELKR
Put plainly: two-hybrid library CCNG1. As to conditions: mean of both orientations.

Assay [27] concerns the target T27, 4H4073-bH.
T27 chain: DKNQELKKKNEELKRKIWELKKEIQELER
Kind of assay: two-hybrid library CCNG1.

The target in assay [28] is T28, 4H457-bH.
T28 chain: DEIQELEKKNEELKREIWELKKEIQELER
Put plainly: two-hybrid library CCNG1.

In assay [29] the target is T29, 4H568-bA.
T29 chain: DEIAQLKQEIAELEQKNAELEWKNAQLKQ
Kind of assay: two-hybrid library CCNG1.

Assay [30] has as its target T30, 4H575-bH.
T30 chain: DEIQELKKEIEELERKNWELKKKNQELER
Kind of assay: two-hybrid library CCNG1.

In assay [31] the target is T31, 4H591-bH.
T31 chain: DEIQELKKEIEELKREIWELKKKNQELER
Kind of assay: two-hybrid library CCNG1.

Assay [32] has as its target T32, 4H626-bH.
T32 chain: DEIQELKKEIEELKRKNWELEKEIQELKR
Kind of assay: two-hybrid library CCNG1.

Assay [33] concerns the target T33, 4H683-bH.
T33 chain: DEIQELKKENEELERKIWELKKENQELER
Kind of assay: two-hybrid library CCNG1.

Assay [34] concerns the target T34, 4H754-bH.
T34 chain: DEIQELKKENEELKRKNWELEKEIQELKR
Kind of assay: two-hybrid library CCNG1.

Assay [35] has as its target T35, 4H780-bH.
T35 chain: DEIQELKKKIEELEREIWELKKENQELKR
Put plainly: two-hybrid library CCNG1.

The target in assay [36] is T36, 4H797-bH.
T36 chain: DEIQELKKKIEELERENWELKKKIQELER
Put plainly: two-hybrid library CCNG1.

Assay [37] has as its target T37, 4H855-bH.
T37 chain: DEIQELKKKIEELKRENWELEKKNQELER
Kind of assay: two-hybrid library CCNG1.

Assay [38] deals with T38, 4H906-bH.
T38 chain: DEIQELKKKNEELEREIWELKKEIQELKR
Kind of assay: two-hybrid library CCNG1.

Assay [39] addresses T39, 4H953-bH.
T39 chain: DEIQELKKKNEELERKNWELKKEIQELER
Kind of assay: two-hybrid library CCNG1.

Assay [40] concerns the target T40, 4H968-bH.
T40 chain: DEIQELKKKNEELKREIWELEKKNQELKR
Kind of assay: two-hybrid library CCNG1.

Assay [41] concerns the target T41, 4H584-bA.
T41 chain: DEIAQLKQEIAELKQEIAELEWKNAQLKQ
Put plainly: two-hybrid library CCNG1.

Assay [42] has as its target T42, 4H591-bN.
T42 chain: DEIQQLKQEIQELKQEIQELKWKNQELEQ
Put plainly: two-hybrid library CCNG1.

Assay [43] addresses T43, 4H619-bA.
T43 chain: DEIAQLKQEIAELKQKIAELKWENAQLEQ
Kind of assay: two-hybrid library CCNG1.

Assay [44] has as its target T44, 4H850-bA.
T44 chain: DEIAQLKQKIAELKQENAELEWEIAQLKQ
Put plainly: two-hybrid library CCNG1.

In assay [45] the target is T45, 4H906-bA.
T45 chain: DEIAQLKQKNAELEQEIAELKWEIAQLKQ
Put plainly: two-hybrid library CCNG1.

For assay [46], the target named is T46, O8-bP.
T46 chain: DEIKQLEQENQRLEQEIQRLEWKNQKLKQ
Put plainly: two-hybrid library CCNG1.

The target of assay [47] is T47, O9-bP.
T47 chain: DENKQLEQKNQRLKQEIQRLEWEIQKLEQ
Kind of assay: two-hybrid library CCNG1.

Assay [48] deals with T48, 4H918-bH.
T48 chain: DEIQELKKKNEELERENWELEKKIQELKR
Put plainly: two-hybrid library CCNG1.

Assay [49] deals with T49, 4H968-bA.
T49 chain: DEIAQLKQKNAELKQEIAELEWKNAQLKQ
Kind of assay: two-hybrid library CCNG1.

Assay [50] addresses T50, 4H3974-bA.
T50 chain: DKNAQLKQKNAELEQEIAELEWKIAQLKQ
Kind of assay: two-hybrid library CCNG1.

The target of assay [51] is T51, 4H570-bA.
T51 chain: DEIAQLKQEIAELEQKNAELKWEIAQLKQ
Put plainly: two-hybrid library CCNG1.

As for DKIAALKAKIAALKAENAALEAKNAALEG [4H2903-AA], the interaction score in [1] was -1.28; in assay [2], -1.62; in assay [3], -1.88; in assay [4], -1.81; in [5] it was -0.448; in assay [6] it was -0.64. Also, the interaction score is -0.202 in assay [7]; -0.593 in assay [8]; -1.72 in assay [9]; -1.8 in [10]; -0.655 in assay [11]; -0.237 in assay [12]. In addition, the interaction score is -0.902 in [13]; -1.22 in [14]; -1.31 in assay [15]; 0.283 in assay [16]; -1.48 in assay [17]; -1.78 in [18]. For the same molecule, the interaction score is -0.566 in [19]; -0.747 in [20]; -1.38 in [21]; -0.722 in [22]; -1.44 in assay [23]; -1.33 in [24]. Further, the interaction score in assay [25] was determined as 2.45.

As for DKNQELKKKIEELKRENWELEKKIQELKR [4H3926-bH], the interaction score in assay [26] is 0.997; in [27] it was -0.649; in assay [28] it was 0.423; in [29], 0.77; in assay [30], -0.061; in assay [31], -1.8. Also, the interaction score in assay [32] was -1.31; in assay [33], -0.233; in assay [34], 0.0882; in assay [35], -0.369; in assay [36], 0.147; in assay [37] it was -0.798. In addition, the results for the interaction score in [38], in assay [39] and in assay [40] were -1.18, 1.52 and 1.04, respectively.

For the molecule DEIAQLKQEIAELKQEIAELEWKNAQLKQ [4H584-bA], the interaction score in assay [41] is 0.598; in assay [42], -0.664; in assay [43], 1.1; in assay [44] it was 0.521; in assay [45], -0.288.

With DEIKQLEQENQRLEQEIQRLEWKNQKLKQ [O8-bP], the figures for the interaction score in [46] and in assay [47] were -1.1 and -0.57, respectively.

With DEIQELEKKNEELKREIWELKKEIQELER [4H457-bH], the interaction score in [28] was 0.207; in [30], -1.98; in assay [33] it was -0.297; in assay [34], -0.826; in [35], -1.57; in assay [36], -0.848. The interaction score in assay [37] is -1.6; in assay [48] it was -0.832; in assay [39], -0.857; in assay [49], 0.553; in [40], 0.389.

DKNQELKKKNEELKRKIWELKKEIQELER [4H4073-bH]: the interaction score was -0.834 in assay [27]; -0.419 in [28]; -1.03 in assay [30]; -0.249 in assay [33]; -1.38 in assay [34]; -0.609 in assay [35]. Besides, the interaction score in assay [36] is -0.554; in assay [44], -2.46; in assay [37], -1.09; in assay [39], -1.39; in assay [40], -1.06.

DKNAQLKQKNAELEQEIAELEWKIAQLKQ [4H3974-bA]: the interaction score in assay [50] is -0.293; in assay [51], -0.136; in assay [41] it was -1.38; in [43] it was -0.503; in assay [44], -1.84; in [45], -1.37.

Values taken from paper PMC10397247.
